The test has as its target prostate-specific membrane antigen (PSMA) (UniProt Q04609 1-750, limits assumed). The experiment in a line: cell-based or functional assay.

prostate-specific membrane antigen (PSMA), sequence (Q04609 whole entry): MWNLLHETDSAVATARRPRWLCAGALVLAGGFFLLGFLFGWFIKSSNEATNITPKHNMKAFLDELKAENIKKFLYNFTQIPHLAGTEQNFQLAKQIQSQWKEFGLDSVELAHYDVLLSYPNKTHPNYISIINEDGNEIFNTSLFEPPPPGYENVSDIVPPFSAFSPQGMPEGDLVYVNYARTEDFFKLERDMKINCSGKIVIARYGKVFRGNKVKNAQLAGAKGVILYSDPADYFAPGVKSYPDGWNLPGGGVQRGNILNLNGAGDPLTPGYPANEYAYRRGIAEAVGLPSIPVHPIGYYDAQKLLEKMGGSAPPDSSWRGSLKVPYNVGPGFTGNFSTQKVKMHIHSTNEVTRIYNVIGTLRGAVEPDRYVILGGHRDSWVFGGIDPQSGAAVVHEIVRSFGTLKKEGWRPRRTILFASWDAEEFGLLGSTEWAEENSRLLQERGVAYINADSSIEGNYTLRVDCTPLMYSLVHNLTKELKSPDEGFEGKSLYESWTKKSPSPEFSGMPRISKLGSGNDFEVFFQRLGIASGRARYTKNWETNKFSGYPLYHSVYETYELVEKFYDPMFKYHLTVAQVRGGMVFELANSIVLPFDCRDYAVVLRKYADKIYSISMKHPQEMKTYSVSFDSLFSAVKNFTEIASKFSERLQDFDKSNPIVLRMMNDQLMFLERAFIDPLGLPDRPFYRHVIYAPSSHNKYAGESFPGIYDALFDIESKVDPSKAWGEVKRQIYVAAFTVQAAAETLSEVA

B1: P28BB (anti-PSMA chimeric costimulatory receptor) (other)
chain: EVQLQQSGPELVKPGTSVRISCKTSGYTFTEYTIHWVKQSHGKSLEWIGNINPNNGGTTYNQKFEDKATLTVDKSSSTAYMELRSLTSEDSAVYYCAAGWNFDYWGQGTTVTVSSGGGGSGGGGSGGGGSDIVMTQSHKFMSTSVGDRVSIICKASQDVGTAVDWYQQKPGQSPKLLIYWASTRHTGVPDRFTGSGSGTDFTLTITNVQSEDLADYFCQQYNSYPLTFGAGTMLDLKRAAAIEVMYPPPYLDNEKSNGTIIHVKGKHLCPSPLFPGPSKPFWVLVVVGGVLACYSLLVTVAFIIFWVRSKRSRLLHSDYMNMTPRRPGPTRKHYQPYAPPRDFAAYRSRFSVVKRGRKKLLYIFKQPFMRPVQTTQEEDGCSCRFPEEEEGGCE
For the molecule B1, the “long-term T cell proliferation (expansion over 31 days) of 19z1+P28BB T cells on AAPCs expressing CD19 and PSMA” value is 58 fold.
